This test has as its target wild type CH1-CH3 Fc fusion protein displayed on yeast (pYD-CH1) (human). Kind of test: FACS titration 1.4 to 0.0006 µM on yeast-displayed Fc, MFI, nonlinear regression.

pKd: −log10 of the molar value.

With “soluble FcγRIIIA tetrameric complex (biotinylated FcγRIIIA-AVITAG on streptavidin-phycoerythrin) (from UniProt P08637 17-203) (receptor)”, the pKd was 8.22.

In general, pKd refers to −log10 of the Kd, conventionally taken in molar units.

The values are drawn from patent US20110243941A1.
